Experimental findings from patent publication US20090186824A1 are described below.

Where no end group is shown, it is not given here.

In the assay the target is dipeptidyl peptidase IV (DPPIV) in plasma of ICR mouse blood (mouse), P28843. Nature of the assay: cell-based or functional assay.
dipeptidyl peptidase IV (DPPIV) in plasma of ICR mouse blood (mouse), P28843, sequence (P28843 37-760 limits assumed): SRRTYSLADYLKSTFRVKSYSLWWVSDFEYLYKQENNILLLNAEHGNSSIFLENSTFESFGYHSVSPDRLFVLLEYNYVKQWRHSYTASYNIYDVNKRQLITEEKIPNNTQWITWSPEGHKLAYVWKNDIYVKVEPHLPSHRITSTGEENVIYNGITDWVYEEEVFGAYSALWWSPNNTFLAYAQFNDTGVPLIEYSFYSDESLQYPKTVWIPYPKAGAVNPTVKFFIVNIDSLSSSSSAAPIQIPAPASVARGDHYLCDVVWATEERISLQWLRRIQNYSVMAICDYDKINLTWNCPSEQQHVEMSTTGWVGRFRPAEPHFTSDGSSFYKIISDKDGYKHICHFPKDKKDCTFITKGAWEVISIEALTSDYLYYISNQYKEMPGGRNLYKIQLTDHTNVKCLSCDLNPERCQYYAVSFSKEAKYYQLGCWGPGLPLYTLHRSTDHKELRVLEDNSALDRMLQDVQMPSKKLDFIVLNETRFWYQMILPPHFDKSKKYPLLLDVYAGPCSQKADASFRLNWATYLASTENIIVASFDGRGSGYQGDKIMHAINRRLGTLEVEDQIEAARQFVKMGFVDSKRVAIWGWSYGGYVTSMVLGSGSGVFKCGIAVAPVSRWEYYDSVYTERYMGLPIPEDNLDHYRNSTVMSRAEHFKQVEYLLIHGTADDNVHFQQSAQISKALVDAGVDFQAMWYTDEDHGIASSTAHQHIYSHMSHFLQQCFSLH

Regarding RIVPA-OH [SEQ ID NO 10], the % DPPIV Activity (Saline) (% relative to saline control) worked out at 51.
